Source: patent US20230321261A1, “AXL-SPECIFIC ANTIBODY-DRUG CONJUGATES FOR CANCER TREATMENT” (GENMAB A/S, priority 2016, published 2023)

B1: IgG1-AXL-148: AXL-specific human IgG1,κ antibody, VH SEQ ID NO:5, VL SEQ ID NO:6, Ig2 domain binding (antibody, listed as Homo sapiens, V domains shown)
VH: EVQLLESGGGLVQPGGSLRLSCAASGFTFSSYAMTWVRQAPGKGLEWVSAISISGGSTFYADSVKGRFTISRDNSKNTLYLQMNSLRAEDTAVYYCRGYSGYVYDAFDFWGQGTMVTVSS
VL: DIQMTQSPSSLSASVGDRVTITCRASQGISNWLAWYQQKPEKAPKSLIYAASSLQSGVPSRFSGSGSGTDFTLTISSLQPEDFATYYCQQYNSYPLTFGGGTKVEIK
B2: IgG1-AXL-726: AXL-specific human IgG1,κ antibody, VH SEQ ID NO:31, VL SEQ ID NO:33, FN2 domain binding (antibody, listed as Homo sapiens, V domains shown)
VH: QVQLQQWGAGLLKPSETLSLTCAIDGGSFSGYYWSWIRQPPGKGLEWIGEISHSGRTNYNPSLKSRVTISIDTSKNQFSLKLSSVAAADTAVYYCARFITMIRGAIITHFDYWGQGALVTVSS
VL: DIQMTQSPSSLSASVGDRVTITCRASQGISSWLAWYQQKPEKAPKSLIYAASSLQSGVPSRFSGSGSGTDFTLTISSLQPEDFATYYCQQYHSYPYTFGQGTKLEIK
B3: IgG1-AXL-726-M101L: point mutant of IgG1-AXL-726, VH SEQ ID NO:32, VL SEQ ID NO:33 (antibody, listed as Homo sapiens, V domains shown)
VH: QVQLQQWGAGLLKPSETLSLTCAIDGGSFSGYYWSWIRQPPGKGLEWIGEISHSGRTNYNPSLKSRVTISIDTSKNQFSLKLSSVAAADTAVYYCARFITLIRGAIITHFDYWGQGALVTVSS
VL: DIQMTQSPSSLSASVGDRVTITCRASQGISSWLAWYQQKPEKAPKSLIYAASSLQSGVPSRFSGSGSGTDFTLTISSLQPEDFATYYCQQYHSYPYTFGQGTKLEIK

Columns and labels:
AXL on A431 cells = target: T1, AXL on A431 cells (Homo sapiens, UniProt P30530); assay: Antibody binding to A431 cells with or without Gas6 pre-incubation; conditions: for Antibody binding to A431 cells: EC50 in presence of Gas6 (µg/mL) mean (s.d.) / Antibody binding to A431 cells: Maximal binding in presence of Gas6 (% of binding in absence of Gas6) mean (s.d.): pre-incubation with 10 µg/mL Gas6; for Antibody binding to A431 cells: EC50 w/o Gas6 (µg/mL) mean (s.d.): without Gas6 pre-incubation
T1 construct: AXL-positive A431 cells were incubated; endogenous in cells; host or cells: A431

[1] = target: T2, human-mouse chimeric AXL mutants (Homo sapiens, UniProt P30530, A151P/A183V/D170T/D266N/G187S/H193Q/P184T/P188S/R148K/R190H/T149A/T182P/V194T); assay: AXL domain specificity using human-mouse AXL chimeric molecules (flow cytometry); format: binding; conditions: 1 µg/mL antibody
T2 construct: constructs for expression of various full-length AXL variants were generated; expressed in transfected cells; host or cells: HEK293F

A431 cells = assay: Antibody-dependent cell-mediated cytotoxicity (51Cr release); format: cell-based, human; conditions: concentrations up to 10 µg/mL; PBMC effector to target ratio 100:1
Experimental: The ability of anti-AXL antibodies to induce ADCC of A431 epidermoid carcinoma cells was determined as explained below. As effector cells, peripheral blood mononuclear cells from healthy volunteers (UMC Utrecht, The Netherlands) were used.
A431 cells were collected (5×10^6 cells) in culture medium (RPMI 1640 culture medium supplemented with 10% fetal calf serum (FSC)), to which 100 µCi ^51Cr (Chromium-51; Amersham Biosciences Europe GmbH, Roosendaal, The Netherlands) had been added, and the mixture was incubated in a 37° C. water bath for 1 hour (hr) while shaking. After washing of the cells (twice in PBS, 1200 rpm, 5 min), the cells were resuspended in RPMI1640/10% FSC and counted by trypan blue exclusion. […]
Peripheral blood mononuclear cells (healthy volunteers, UMC Utrecht, Utrecht, The Netherlands) were isolated from 45 mL of freshly drawn heparin blood by Ficoll (Bio Whittaker; lymphocyte separation medium, cat 17-829E) according to the manufacturer’s instructions. After resuspension of cells in RPMI1640/10% FSC, cells were counted by trypan blue exclusion and diluted to a density of 1×10^7 cells/mL.
50 µl of ^51Cr-labeled targets cells were pipetted into 96-well plates, and 50 µl of antibody were added, diluted in RPMI1640/10% FSC (3-fold dilutions at final concentrations range 0.01-10 µg/mL). […] The percentage specific lysis was calculated as follows: […]

[2] = target: T3, AXLECDHis (extracellular domain of human AXL) (Homo sapiens, UniProt P30530); assay: Binding affinity by Bio-Layer Interferometry (ForteBio OctetRED384); conditions: 1:1 model, 30° C.
T3 construct: the extracellular domain (ECD) of human AXL (aa 1-447) with a C-terminal His tag (AXLECDHis); His tag (C); made in house; host or cells: HEK-293F

[3] = target: T4, Gas6 binding to AXL on A431 cells (Homo sapiens, UniProt P30530); assay: Gas6 binding to A431 cells pre-incubated with AXL antibodies; conditions: pre-incubation with 10 µg/mL antibody; control antibody b12
T4 construct: endogenous in cells; host or cells: A431
Experimental: Alternatively, A431 cells were pre-incubated with 10 µg/mL AXL antibodies (15 minutes, 4° C.) to assess if the AXL ligand Gas6 could still bind in presence of AXL antibodies. […] After washing three times in PBS/0.1% BSA/0.02% azide, cells were incubated with mouse anti-Gas6 IgG2a (R&D Systems; cat no. MAB885) at 4° C. for 30 min. After washing three times in PBS/0.1% BSA/0.02% azide, cells were incubated with FITC-labelled goat anti-mouse IgG (Dako, Heverlee, Belgium; cat no. F049702) at 4° C. for 30 min in the dark. Next, cells were washed twice in PBS/0.1% BSA/0.02% azide, resuspended in 120 µL PBS/0.1% BSA/0.02% azide and analyzed on a FACS Cantoll (BD Biosciences).
(§1) Binding curves were analyzed using non-linear regression (sigmoidal dose-response with variable slope) using GraphPad Prism V5.04 software (GraphPad Software, San Diego, CA, USA).
Therefore, binding of Gas6 to A431 cells that had been pre-incubated with 10 µg/mL AXL antibodies was tested as described in Example 2.

[4] = target: T5, human AXL with a cynomolgus monkey extracellular domain (ECD) (Homo sapiens, UniProt P30530, P441T/S191N/S285L/T105A/T112A/T125N/T443A); assay: Flow cytometry binding to transfected HEK293T cells; conditions: at least 3 experiments
T5 construct: aa 1-447); human AXL transmembrane and intracellular part (the remainder of human AXL after the ECD; expressed in transfected cells; host or cells: HEK293T

full length human AXL = target: T6, full length human AXL (Homo sapiens, UniProt P30530); assay: as above; conditions: at least 3 experiments
T6 construct: expression constructs for full length human AXL; expressed in transfected cells; host or cells: HEK293T
Experimental: HEK293T cells were transiently transfected with expression constructs for full length human AXL, human AXL with a cynomolgus monkey extracellular domain (ECD) or human AXL with a mouse ECD (see Example 1). Binding of HuMab-AXL antibodies to these cells was evaluated by flow cytometry. Transfected HEK293 cells were incubated with serial dilutions of AXL-antibodies (final concentration range 0.0024-10 µg/mL) for 30 minutes at 4° C. […] Next, cells were washed twice in PBS/0.1% BSA/0.02% azide, resuspended in 120 µL PBS/0.1% BSA/0.02% azide and analyzed on a FACS Cantoll (BD Biosciences).
as §1

[5] = target: T7, human AXL transiently expressed by HEK-293F cells (Homo sapiens, UniProt P30530); assay: Homogeneous antigen specific screening assay (FMAT); format: binding
T7 construct: TH1021-AXL (HEK-293F cells transiently expressing full length human AXL; produced as described above); expressed in transfected cells; host or cells: HEK-293F

PAXF1657 tumors = assay: PAXF1657 pancreas cancer PDX model; format: in vivo, NMRI nu/nu mice; conditions: mouse, in vivo
[6] = target: T8, human-mouse chimeric AXL mutants (Homo sapiens, UniProt P30530, A349V/A358V/A407T/A411S/A425P/A431G/C405S/D266N/F350L/G397R/H352R/I340V/K439S/P444R/Q372R/Q387R/Q394R/Q436H/R386T/S398P/S400A/S442P/T343M/T443P/V434L); assay: AXL domain specificity using human-mouse AXL chimeric molecules (flow cytometry); format: binding; conditions: 1 µg/mL antibody
T8 construct: constructs for expression of various full-length AXL variants were generated; expressed in transfected cells; host or cells: HEK293F

Row | Molecule | Antibody binding to A431 cells: EC50 in presence of Gas6 (µg/mL) mean (s.d.) (AXL on A431 cells) | Antibody binding to A431 cells: Maximal binding in presence of Gas6 (% of binding in absence of Gas6) mean (s.d.) (AXL on A431 cells) | Antibody binding to A431 cells: EC50 w/o Gas6 (µg/mL) mean (s.d.) (AXL on A431 cells) | binding to hsAXL-mmIg2 [1] | ADCC in A431 cells (percentage specific lysis) (A431 cells) | Binding affinity (OCTET) Kdis [2] [s⁻¹] | Binding affinity (OCTET) Kon [2] [M⁻¹ s⁻¹] | Gas6 binding to A431 cells: Maximal binding in presence of AXL antibodies (% of binding in presence of control antibody) mean (s.d.) [3] | Binding EC50 (µg/mL) cynomolgus AXL Average (s.d.) [4] | Binding EC50 (µg/mL) human AXL Average (s.d.) (full length human AXL) | Maximal binding (Arbitrary units) [5] [Arbitrary units] | anti-tumor activity in the PAXF1657 model (FIG. 10B, 10C) (PAXF1657 tumors) | binding to hsAXL-mmFN2 [6]
1 | B1 | 0.20 (0.30) µg/mL | 93 (5) % | 0.11 (0.13) µg/mL | strongly reduced binding | did not induce significant ADCC | 0.0044 | 230000 | 106 (7) % | 0.152 (0.080) µg/mL | 0.094 (0.059) µg/mL | 3499 | did not result in anti-tumor activity | –
2 | B2 | 0.55 (0.69) µg/mL | 97 (10) % | 0.32 (0.35) µg/mL | – | – | 0.00013 | 240000 | 98 (10) % | 0.349 (0.160) µg/mL | 0.288 (0.206) µg/mL | 3154 | – | lost
3 | B3 | – | – | – | – | did not induce significant ADCC | 6.9e-05 | – | – | 0.250 (0.066) µg/mL | 0.184 (0.117) µg/mL | – | – | –
